From publication PMC3103650 (Chemico-biological interactions, 2011)

Target: the molecule itself
Test: SEC

B1: C-terminal domain of mtFDH (ALDH1L2), residues 413-923 (domain or fragment, human, UniProt Q3SY69 413-923, looked up)
chain: VRKLRGEDQEVELVVDYISKEVNEIMVKMPYQCFINGQFTDADDGKTYDTINPTDGSTICKVSYASLADVDKAVAAAKDAFENGEWGRMNARERGRLMYRLADLLEENQEELATIEALDSGAVYTLALKTHIGMSVQTFRYFAGWCDKIQGSTIPINQARPNRNLTFTKKEPLGVCAIIIPWNYPLMMLAWKSAACLAAGNTLVLKPAQVTPLTALKFAELSVKAGFPKGVINIIPGSGGIAGQRLSEHPDIRKLGFTGSTPIGKQIMKSCAVSNLKKVSLELGGKSPLIIFNDCELDKAVRMGMGAVFFNKGENCIAAGRLFVEESIHDEFVTRVVEEIKKMKIGDPLDRSTDHGPQNHKAHLEKLLQYCETGVKEGATLVYGGRQVQRPGFFMEPTVFTDVEDYMYLAKEESFGPIMVISKFQNGDIDGVLQRANSTEYGLASGVFTRDINKAMYVSEKLEAGTVFINTYNKTDVAAPFGGVKQSGFGKDLGEEALNEYLKTKTVTLEY
stoichiometry N: 4
